The values that follow come from doi:10.1101/2024.11.03.621760 (bioRxiv, 2024).

This data set deals with the molecule itself. The data set is described as follows: crystal structure; HALC3_919 alone, 2.1 Å, space group P 21 3, PDB 9C7Z.

B1: HALC3_919 (designed binder)
chain: MSGSEELLEELRELLERLQELLELIEQGKITPEQLREAIALLIEVLQILYEALRELAEQLQRLREELG
notes: also called HALC3_919 trimerization domain; source: E. coli, purified (Ni-NTA, SNAC cleavage, SEC)
Turning to B1, the “stoichiometry N” value turned out to be 3.

The term stoichiometry N denotes a count of units in the complex or per binding partner.
